Test results reported in the supplement of paper PMC9732359.
± gives the uncertainty stated by the source.

Assay: protein stability index of a GFP-peptide fusion (yeast GPS) (PSI 1-4); higher = more stable; sorted into four equal gates, so the index is relative within each strain
In short: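 The protein stability index combines read frequencies across sorting gates, each weighted by its gate number and then summed. To obtain those frequencies, a pooled yeast library of GFP fusions to tiled 17-residue yeast protein peptides, on a plasmid also expressing Cherry, was grown to mid-log phase in leucine-free medium. The cells were sorted into four equal gates by GFP/Cherry ratio before plasmid amplification by PCR and Illumina sequencing.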

Row | Sequence | protein stability index (doa10∆) | protein stability index (pdr5∆) | protein stability index (ubr1∆) | protein stability index (san1∆)
1 | MPGVSVRDVAAQDFINA [RPS19A] | 1.81 ± 0.12 | 1.31 ± 0.12 | 1.16 ± 0.11 | 
2 | VCMHCGKLLLDEHNELM [RPO21] |  | 2.94 ± 0.18 | 3.14 ± 0.084 | 2.77 ± 0.28
3 | QVILPMSPNHGTFGGDG [FAS2] | 3.12 ± 0.064 | 3.1 ± 0.057 | 3.07 ± 0.048 | 3.18 ± 0.061
4 | PKFFLGEENRVRFIGDS [QCR2] | 3.17 ± 0.1 | 3.15 ± 0.11 | 3.2 ± 0.069 | 3.07 ± 0.073
5 | YCDPNTQEIRPVNTGVL [RRP40] | 2.62 ± 0.055 | 2.89 ± 0.05 | 2.76 ± 0.069 | 2.62 ± 0.052
6 | TDLRLSTNGLGMCQLYF [SNU114] | 3.48 ± 0.12 | 3.52 ± 0.13 | 3.08 ± 0.21 | 2.98 ± 0.23
7 | FARLSRLLSLWEVFQMA [RPC82] | 1.9 ± 0.11 | 1.97 ± 0.096 | 2.08 ± 0.051 | 2.86 ± 0.13
8 | RDRKLITDKGTVDGRLY [YJL039C/NUP192] | 3.16 ± 0.12 | 3.22 ± 0.074 | 3.17 ± 0.076 | 3.19 ± 0.071
9 | QYSTRHDAPRGLFPFES [SWI3] | 3.14 ± 0.062 | 3.17 ± 0.073 | 3.13 ± 0.067 | 3.2 ± 0.077
10 | DACPLDNQPWQLARCGR [HRT1] | 2.76 ± 0.068 | 2.56 ± 0.067 | 2.61 ± 0.059 | 2.03 ± 0.077
11 | EEKQKSYKFPRGTTAVL [PUP1] | 3.37 ± 0.12 | 3.11 ± 0.13 | 2.91 ± 0.088 | 3.14 ± 0.099
12 | MSRDAPIKADKDYSQIL [RPN5] | 2.97 ± 0.1 | 2.44 ± 0.078 | 2.67 ± 0.062 | 2.21 ± 0.13
13 | ELKIRSKTENVRRLEAQ [RPT6] | 2.5 ± 0.16 | 2.53 ± 0.12 | 2.53 ± 0.095 | 1.58 ± 0.27
14 | LGCTLVTLLANVRALYM [RMP1] | 1.62 ± 0.17 | 1.85 ± 0.21 | 2.06 ± 0.073 | 2.74 ± 0.16
15 | RKYEISFGKIYVTKPMV [RPB2] | 1.95 ± 0.092 | 2.44 ± 0.21 | 2.16 ± 0.11 | 1.88 ± 0.19
16 | PSLKFKPKAVARKSKEE [RPC53] | 2.82 ± 0.12 | 2.65 ± 0.086 | 2.88 ± 0.077 | 2.43 ± 0.07
17 | QIQQQQQKQQQQQQQHQ [SNF5] | 2.53 ± 0.12 | 2.97 ± 0.14 | 2.61 ± 0.22 | 2.93 ± 0.12
18 | YDRNSNNNHKDKKLLRR [SWI1] | 3.09 ± 0.053 | 3.17 ± 0.05 | 3.23 ± 0.041 | 3.06 ± 0.06
19 | ELLAYQFASPVRWIETQ [FAS2] | 1.77 ± 0.021 | 1.86 ± 0.019 | 1.728 ± 0.016 | 1.92 ± 0.027
20 | FDKVEVQVRSVMDPITS [DIS3] | 2.78 ± 0.07 | 2.8 ± 0.066 | 3.04 ± 0.064 | 3.21 ± 0.053
21 | VSLVVNFQISKKMDDYI [PRP28] | 2.39 ± 0.066 | 2.05 ± 0.07 | 2.03 ± 0.05 | 2.38 ± 0.1
22 | DRINYTETALMNLKKEL [SRB5] | 3.14 ± 0.14 | 3.28 ± 0.16 | 3.18 ± 0.095 | 3.41 ± 0.088
23 | ESDETTTDNNNSGNSNS [RPT1] | 3.12 ± 0.094 | 3.11 ± 0.098 | 3.13 ± 0.051 | 2.66 ± 0.22
24 | FVNETPRVIEPVYTAQW [PRP8] | 1.57 ± 0.16 | 2.31 ± 0.15 | 1.19 ± 0.1 | 2.19 ± 0.16
25 | VSLIKKYKLISRIVEIF [YML103C/NUP188] | 1.34 ± 0.054 | 1.94 ± 0.049 | 1.46 ± 0.054 | 1.64 ± 0.067

Row | Sequence | protein stability index (doa10∆) | protein stability index (pdr5∆) | protein stability index (ubr1∆) | protein stability index (san1∆)
26 | TCSCCKKTVAGGAYTVS [RPL43A] | 1.65 ± 0.064 | 2.1 ± 0.11 | 2.15 ± 0.066 | 1.76 ± 0.086
27 | LEIRNKICSSEMINEQK [RGR1] | 3.02 ± 0.11 | 2.91 ± 0.14 | 2.9 ± 0.12 | 3.01 ± 0.15
28 | EVTFKNANIFSSVKCFG [FAS1] | 2.92 ± 0.046 | 2.81 ± 0.058 | 3.06 ± 0.052 | 2.84 ± 0.063
29 | ALFFDPSLNPIPHFIDN [PRP8] | 2.64 ± 0.058 | 2.77 ± 0.047 | 2.61 ± 0.04 | 2.47 ± 0.057
30 | CVVSTDSTNLSDDAAQF [ECM29] | 2.19 ± 0.086 | 2.6 ± 0.075 | 3.04 ± 0.078 | 1.69 ± 0.08
31 | DDDAVRREVQIQLQEFL [NSL1] | 3.28 ± 0.093 | 3.27 ± 0.1 | 3.45 ± 0.089 | 3.36 ± 0.073
32 | ATPQEAQFYLGKRIAYV [RPL33B] | 1.64 ± 0.11 | 2.2 ± 0.068 | 2.43 ± 0.077 | 1.76 ± 0.076
33 | NNNGNSAASKKKKNKNK [SRP21] | 3.09 ± 0.092 | 3 ± 0.12 | 3.14 ± 0.057 | 3.15 ± 0.057
34 | RSKFGGDFLDFQVHERL [ARP7] | 3.15 ± 0.11 | 3.11 ± 0.1 | 3.32 ± 0.075 | 3.5 ± 0.075
35 | SQDATKVDATPEESKPI [YLR335W/NUP2] | 2.87 ± 0.12 | 3.17 ± 0.089 | 3.18 ± 0.06 | 2.81 ± 0.08
36 | VINLKQIAKFVVGLGER [RPT1] | 2.75 ± 0.14 | 3.39 ± 0.18 |  | 3.12 ± 0.3
37 | AQLAKAKTELNEVSLAI [SMC2] | 3 ± 0.077 | 2.75 ± 0.074 | 2.61 ± 0.046 | 1.82 ± 0.097
38 | ENGDYAACEKLLPPIKI [RPN12] |  |  |  | 1.89 ± 0.21
39 | PLPICHANSVVALTGLL [YML031W/NDC1] | 3.13 ± 0.12 | 1.73 ± 0.083 | 2.5 ± 0.12 | 2.58 ± 0.099
40 | SYWQKSYFKNSVIVKFH [LIN1] | 2.56 ± 0.041 | 2.62 ± 0.045 | 2.35 ± 0.041 | 2.42 ± 0.06
41 | TERVVEIGPSPTLAGMA [FAS2] | 2.501 ± 0.018 | 2.599 ± 0.017 | 2.496 ± 0.012 | 2.496 ± 0.019
42 | LCVLWDDLQSSVIPEVD [YCG1] | 1.88 ± 0.095 | 1.87 ± 0.068 | 2.34 ± 0.075 | 2.01 ± 0.087
43 | SFDVAISTACPRLDDVV [SMC4] | 3.12 ± 0.083 | 3.34 ± 0.051 | 3.11 ± 0.078 | 3.1 ± 0.075
44 | SATSTTEQTKSKNPLSL [YLR335W/NUP2] | 2.95 ± 0.04 | 3.01 ± 0.047 | 2.96 ± 0.044 | 2.58 ± 0.055
45 | WYLILSIISSKTSCVVE [RGR1] | 1.46 ± 0.13 | 1.23 ± 0.12 | 1.18 ± 0.1 | 1.58 ± 0.26
46 | SETREKELESIDVLLEQ [RPB4] | 3.04 ± 0.13 | 3.11 ± 0.096 | 3 ± 0.095 | 2.86 ± 0.11
47 | ISSPIVANSPNKRLDVI [YDL088C/ASM4] | 2.71 ± 0.23 | 2.88 ± 0.14 | 2.85 ± 0.13 | 
48 | DKDNAEKTLGKSLSKAI [RPN7] | 2.27 ± 0.12 | 2.67 ± 0.21 |  | 
49 | VKQLENVSSNIVKNAEQ [RPS20] | 2.58 ± 0.092 | 2.84 ± 0.081 | 2.86 ± 0.056 | 3.15 ± 0.049
50 | PKSKSLPNEMSQNDGFV [RPO31] | 3 ± 0.2 | 3.14 ± 0.14 | 3.36 ± 0.11 | 3.38 ± 0.12
